Paper PMC8187593 (2021)
Values belong to the binder of their own block, whether it stands above or below them.

Biological target: T1, cathepsin K mature active enzyme (Homo sapiens, UniProt P43235)
T1 chain: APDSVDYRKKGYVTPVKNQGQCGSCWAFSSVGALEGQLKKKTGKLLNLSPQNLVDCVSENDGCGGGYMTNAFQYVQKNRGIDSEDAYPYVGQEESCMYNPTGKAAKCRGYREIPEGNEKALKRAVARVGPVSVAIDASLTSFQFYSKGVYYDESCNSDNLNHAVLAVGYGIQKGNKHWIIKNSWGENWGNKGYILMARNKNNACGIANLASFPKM
Assay: SPR

Kd: 4.2 nM
B1: vitronectin (pVN) (protein)
chain: DQESCKGRCTDGFIAERKCQCDELCSYYQSCCTDYVAECKPQVTRGDVFLQPDDEYRAYDYHEETRHNTSVQEEQRIPVLLAKTEETPVLKPEEEAPPPGPQTDDLGVPEEELCSGKPFDAFTNLKNGSVFAFRGLYCYELDEKAVRPGYPKLIQDVWGIKGPIDAAFTRINCQGKTYLFKGSQYWRFDDGVLDPNYPREISEGFKGIPDDVDAALALPAHSYSGRERVYFFKGKQYWEYVFQQQPSREECEGSSPSDVFAHFALMQRDSWEDIFRLLFWSHSFGGAIEPRVISQDWLGLPEQVDAAMAGQIYISGSALKPSQPKMTKSARRSGKRYRSRRGRGRGRGHSRSQKSHRQSRSTWLPWFSSEETGPGGYNYDDYKMDWLVPATCEPIQSVYFFSGEEYYRVNLRTQRVDTVTPPYPRSIAQYWLGCPVPDQK

Kd: 1.99 nM
B2: vitronectin (hVN) (protein)
chain: DQESCKGRCTEGFNVDKKCQCDELCSYYQSCCTDYTAECKPQVTRGDVFTMPEDEYTVYDDGEEKNNATVHEQVGGPSLTSDLQAQSKGNPEQTPVLKPEEEAPAPEVGASKPEGIDSRPETLHPGRPQPPAEEELCSGKPFDAFTDLKNGSLFAFRGQYCYELDEKAVRPGYPKLIRDVWGIEGPIDAAFTRINCQGKTYLFKGSQYWRFEDGVLDPDYPRNISDGFDGIPDNVDAALALPAHSYSGRERVYFFKGKQYWEYQFQHQPSQEECEGSSLSAVFEHFAMMQRDSWEDIFELLFWGRTSAGTRQPQFISRDWHGVPGQVDAAMAGRIYISGMAPRPSLAKKQRFRHRNRKGYRSQRGHSRGRNQNSRRPSRATWLSLFSSEESNLGANNYDDYRMDWLVPATCEPIQSVFFFSGDKYYRVNLRTRRVDTVDPPYPRSIAQYWLGCPAPGHL
